The nature of this data set: soluble fraction after stress (log2 fold change); higher = more stays soluble; pooled small domains, quantitative proteomics. The settings on record: stress: pH 4. The procedure, abridged: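 Custom libraries of small protein domains were pooled and measured with high-throughput quantitative proteomics after pH 4 stress. The read-out is the fold change in the amount of each domain that stays soluble after the acid stress, taken as a measure of aggregation propensity. Fold changes are on a log2 scale, and higher values mean more of the domain stayed soluble.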
For the sequence “HMAAEGARNNSLFNSLRERALEVSSHNELEQIAFKMNETNIPPLRASEVISVVNSVWKNRISNQIIP”, the “soluble fraction (log2)” value was -0.0841.
The result for “HMAAFGDLLSELRRDMNMTQDELAKVLFVSPGTISNYENNIHFPDVPKLKQIAQYFGVTTDYLLG” reads -1; that for “HMAAINTYQVRKIYAIAGALGMKSRDGDDALHDLVFGMTGKQHISGLTSAEAYDVIAELEKKQ”, -0.223; that for “HMAALKVAVLTVSDTRTQETDTSGAFLEGALREAGHEIADRQIVIDDVYQLRAIVSQWIADPEVEVILT”, -1.31.
Consider “HMAALTADEAKQIALKHAGVAESDVQRLKVEQDRDDGRLLYEVEWDVGRTEYSYEIDANTGDILNYEKDV”, for which the “soluble fraction (log2)” value is -0.361.
Take “HMAANKIDEDRNTELLQVIQNKFPDADAATKKSVKEIMKEHDIPNFKNADDIPTAVLEQIVKVLNQ”: the “soluble fraction (log2)” value was -0.128.
As to “HMAAPLTDRETEVLTLLARGLINKQIAEELHIGLTTVITHRRNIMEKLRVRSLAELILRAVAAGYVDAGR”, the “soluble fraction (log2)” value was -0.78.
As to “HMAARKDLIAGEDAEGRLDAWLAAALDGEFSRNRVKALIEQGAVAINDVAVTEPKRKIRPGDRLSIVLPEP”, the “soluble fraction (log2)” value stood at 0.248.
To “HMAARLMRALIPYAQGGLLAKLHEDGQVLSEEYTGEGIEVKALADEQLFGRLTVQLGEQAVSWQD” belongs -0.205.
The result for “HMAASTPGTVTGSVVNVRPDPSTNNDRIGVIYQGTKVEILAQVGEWYNIQFGPVSGWVHKDYISTGA” reads -0.161; that for “HMAATISPEIQAEAEKAAALGVESIKNFMASLKEKNPEQHALFSDSEKRRLYAIARKADLNTTQQG”, 0.0597.
The result for “HMAAVPQPQRSETIVYIGGRKFYVHTVQAGETLYSIARLYGVSEQTLVANNPTMADVVKADQNVRIPVPA” reads -0.00329; that for “HMAAYRLIPLGNSNKDFETYQEAIQYMRDKLDESSKAFEEGKQNWVYSGRVYGVPWSDGRTTFTVDLVPKV”, 0.0755.
Take “HMADASVTAYFKIAEDRLQGRLPDTFSEASLKARYQLTPAQLTAVLTRIAQEGWAERKPGYGWAFSSML”: the “soluble fraction (log2)” value was -1.
“HMADEIMYPVQVNGKVRAEIFVAADQSKNKELVLEMAKSEERVQKYLEEGNLIKEIFVPGRIVNLVI”: the “soluble fraction (log2)” value is -0.269.
As for “HMADEIQIGLQKAIQSLPEKQKLVFSMRYYDEIPYDEMSKILDMSVGTLKTNYHYAKQKIEDFLQNH”, the “soluble fraction (log2)” value is -0.0771.
Regarding “HMADFIGMNATVTERIFPQGFGRISFVYEGNSISEPARSEDGKEIPTGTSVVVLEVRDKVYIVQPL”, the “soluble fraction (log2)” value was -0.0827.
For “HMADGDIIPEGQRDATLASLAGSMRARGMTEAEILAALQVTNETRVRPPMALADLERIARSIGRYEPGK”, the “soluble fraction (log2)” value turned out to be 0.0649.
On to “HMADKGTITNQQEKILKALILFPEGASIEEIQKAADLGIDKRQFQRRLNTLIESGQINRTGKSRGTKYHTI”, for which the “soluble fraction (log2)” value was found to be 0.356.
The result for “HMADLKVGFVHRAGSVLERELDDVLEALEMYRSALAIDPSHKPSLDALTRISQLADYREQAAEILEPLPR” reads -1.04; that for “HMADLNFHQQIRSLPPEQQEILLLRFGQELTLRQIAQVTGVPLRTVQSRLRAALKKLKSQLEKEE”, -0.0215.
To “HMADLPQATALADVKGDVQMQGIQFGYDPEKIIIHDLNLHARPGSLVAIVGPTGAGKTTIINLLMRFYD” belongs 0.124.
To “HMADLVYLRKRLQDAIAQLPEDMRTAYTLFQIARRSIREIAELTGASESLVKVRIHRAKGKLQELLEDLR” belongs -0.55; to “HMADPAVLIAELFRAMPEKRFSVKNLISATGAETREQKDYVREVVHSLSREGMIEQVAEGKYRLSASE”, 0.241.
Take “HMADQVLVMTRAVGQGDIVRNADIGLTSVAVDRAVATIPASQLDKIVGRHALVDLSPGQLLGSHSVGE”: the “soluble fraction (log2)” value came to 0.107.
The result for “HMADRDKYIIMGQQLLRAAFEHFGKKATDKALENAANKLRISDVPELYARLGSAELQPRDVINVIFPD” reads -0.0521; that for “HMADRLITLSEVASLLRVSRHTVQAWISPSSPNHRPEFAIMARHAGRRTVFIEAEVTAWLDQRRG”, -0.7; that for “HMADVSPEAQHKMVEAFAQFGVTKEHIEQRIQRRLDAIQPAQMVTLKRIFASLRDGMSTPAEWFE”, -1.03.
To “HMADYSGYLGKKGKVIAPLRPAGTALIDGERVDVVSFGDYIDKDSEIEVVKIEGSKLLVKKY” belongs 0.128.
The result for “HMAEAIVMSTAAPVKSSPDPQSKDIFVLHEGTKVAVGDSLGDWREIRIADGNKGWVLVSAIEMI” reads -0.173; that for “HMAEDGNMTFEEYAKRWLARQVRYAPSTLESYRRMLGRVYPFIGAIPINRLRPIALENLLAELRKRT”, -0.0982; that for “HMAEEFESMTEARRLELARLVDSRGFVRVTDAAEELGVSDVTIRGDLSELERRGLLTRVHGGAMPVT”, -0.366.
As to “HMAEKEYYYATDALNLRQGPGMEHTVKGEVVLGERVALLGLEGKWAKIQNAQGTTGYVFSAYLAPS”, the “soluble fraction (log2)” value was -0.147.
The result for “HMAEMLENQLKHAKSKQEANEYIAAAIGGVSDDDPDKEYLVAAYNEISKEFHHSSAYHRLPDT” reads at least 0.43.
To “HMAEMRYLDQIYEVNVPLPDLSLEDGDLLARWAVNFHQRYEELFSYRQSDQEIRLVTLRVTVLGELP” belongs -1.67.
The result for “HMAENMNAALRVSSLINQIGTVNAKAKDRIESARKAYDALSEAQKAYVANLTTLETAETSLSKL” reads 0.146; that for “HMAENTIPSVIGKTLSDATFLLESYGYERGGVSEEYSEMPKGVVIRQSPQAGSSADPGTKVNLVVSLGEEI”, -0.692.
On to “HMAENTKKWDETGRRYRSYIKLEKRLSENTVESYMRDYMQFAHFILRQWDVAPHKVEPQMVERYMAWLYER”, for which the “soluble fraction (log2)” value is -0.806.
To “HMAEPIAAGKYTVSTSGSVLNMRVSPDADSQVLEKIPNGTIVEVTKSVLGWAYVTYNSAQGWVSSAYLV” belongs -0.463; to “HMAEPLMTQIVEIEYADAEGLRENLEQFLTRLDEKTLLGSVLVDRHTNSLIIQAVRSDLERMLPLIETLDR”, -1.49.
To “HMAEPLYKQVKNKIIQNLTSDEWKPGSVIPSETKLAETYGVGVSTIRMAIGELVAARILIRRQGKGTFVSS” belongs 0.238; to “HMAEQDILQSVYPHIGGQDNVSRTISRNGTLYLMLKDASAVDLKAVKQVPGIADAALERGRLTLQLEE”, -0.0819.
To “HMAEQLGNSRTANMVMLGAMIERTGVISIDSAMEALKATFGPKKEHLLPINRQAMEAGAAAARAV” belongs -0.517.
As for “HMAERVWASLLEIKNAVAIEDAKTLEDVDNSEKIAEERIAALNDDAKHPLAIAFIGKLRQDIAEKKIELA”, the “soluble fraction (log2)” value was -1.19.
To “HMAESSPYTVRPGDTLWKILAQTQNARYNDFPYLYRKFRELNPNITDLNHIVSGQKIIVPHIPG” belongs 0.196.
“HMAESTRSRILNAAIEMMETGGESSVRLSAIAEALGIKEPSIYHHFTNRTELVNAAYIEWYW”: the “soluble fraction (log2)” value is -0.63.
To “HMAEVDREEALRIALAHAAVARRDVRNLKIERGEENGVPVYKVEFETAFGDFDVAVSRRSGDVVDAD” belongs -0.0548; to “HMAEVIYGAGKTPAQMLGILRTMQAHGQKTVLITRLREEAAEEIGREIPLQYDKTAGVGIVGTLPQPDG”, -0.0513.
To “HMAEVPSLIGKSLDAAKQAIIDAGFKVGSVSYDNSDSYGKGQVMWQQYEPSTKVKKGSSISIKVSKGS” belongs -0.121; to “HMAEVRTLLVPIELAGMRFDQVLAELLPEFSRSRLAAWIKSGDALLDGHDAKPKGVVRGGEQIEIRLA”, -0.167.
To “HMAFAVWVKLVAIGPNYAQLEIEQGTQRNVRTLRPGDDAPEGVRLLSLTPTHAEVQANGIARKLALGQGMA” belongs -0.0174.
Regarding “HMAFDESLVRSIQELLSELGYSPGKIDGLLGAKTVAAIKAFELEINKDQLTGEPSEELLIALQLAIRSSKM”, the “soluble fraction (log2)” value is -0.968.
The result for “HMAFDGIVLKNITNALKELINGKINKIQQSSKDNLTLSIYNQKSYNLYIDISANNYRVNLTTHSE” reads 0.22; that for “HMAFDYETYQLTSREFSIIELVADGRSNREIAEALYLGEGTVRNYLSSILEKLELRDRTQLAVFFYQHL”, -2.34; that for “HMAFIEIMTEGDADGRGFQYPIPTYSITRDFDWSETENNKLLFEMTAKYGTPYFSNYINSDMEPSDV”, -0.913.
The result for “HMAGAITEREVEVLELLSRGLGNKEIAKELFVSEATVKSHLSHIYTKLAVDTRAGAVAAAIERRIIRAWR” reads -0.388.
To “HMAGASQAVKAQLRLREMILAGELPGGARIAELTLVEKLGVSRTPIRAALMRLEQEGLLHRLPGGGYAVRT” belongs -0.41.
Regarding “HMAGDDEIEKIAQDILAAWPDKVAAYQAGNKGLMGLFMGELMKKSQGKANPKVASGIIQKLLD”, the “soluble fraction (log2)” value is -0.455.
To “HMAGEDPANLELMRLMDEEYMEHPTKGVLGMVDFLRALGILTGPKRVRRLLRKMGIMAIYPK” belongs -0.396; to “HMAGGVFELTGKVTADAKAGDLVYVKAATGAGTKPVVTTVKTGADVIIGWLKEPVSSASVDQKMQVVLA”, 0.22.
To “HMAGITLHAEEGRVRIRSQSEGLVKVLDAMGREQASWPLRSKGWWFFLTEGWAPGTYFVKTESGETQRFLV” belongs 0.215.
The result for “HMAGNNTATKEIAELLIAKGADVNAMNLSPPGREIGGMTPLDMAILGNRNEIADLLRKHGGRTQKELKAE” reads -0.104; that for “HMAGPGAEVVDRLIAVLTGERPATAADQVLLSILKGLGIGGVVLPSERTGLGWSGLYQRVKEITDMN”, -1.21.
As for “HMAGPRRRLLDAAIDRAAERGLGDLSLRALAEELGTSHRMLSHHFGSKDGLWLAIVEEVERRQ”, the “soluble fraction (log2)” value was -0.661.
In the case of “HMAGSTAASKHALALLNTARHSIRDGNLTSAAAEIKQALATSQEQIVITEARSLMTAMEARATTRRATVLQ”, the “soluble fraction (log2)” value is -0.179.
The result for “HMAGTAMRATTAVNVRSGAGTNYSRIGLLQAGEQIQALSSKNGWTQVSYKGRTGYVASAYLASL” reads 0.402; that for “HMAGTGKVNTGVANVRSGPGTNYEISGKIYADTEVSILETSNGWYKIKFGNLTGWMSGTVLDIK”, -0.0124; that for “HMAGTPAVVKWFNPTKGFGFVTPREAGSDALLHASVLAKQGKRWLQEGTVVEVVLEEGPKGLVVSEVLTIE”, -0.469.
To “HMAGWMPGGTNPAEPGRFAVLMDVDDSDAYKHMFLRWNGHAWEFERTRVLVKMEPSWWMRLPDDPEKP” belongs -0.27.

Values taken from the domain aggregation screens of Martell et al. (2025).
